# Reference: the domain aggregation screens of Martell et al. (2025)
# Experiment: soluble fraction after stress (log2 fold change); higher = more stays soluble; pooled small domains, quantitative proteomics
# Details: stress: 50 degC
# Summary of the method: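 Each library was heated to 50°C as a stress step. The libraries, made up of small protein domains, were pooled and analysed at high throughput by quantitative proteomics. The reported value is the base-two logarithm of the fold change in each protein's soluble amount after stress, taken as a measure of aggregation propensity. The higher the value, the more protein stays in solution.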
row,Sequence,soluble fraction (log2)
1,HMLPDPIYEAFMMASDLGIVVRNGPQYAYPDKETGEVLYKALGREKFLQLMKDNDGLLTSIETEIRSM,-1.18
2,HMDTPVYYYVNGNGVRMRKDASLESDILILLYKGTKVEYVDVKGEWIKVKYNNEIGYIRNDLLSAEMPD,-0.0872
3,HMRVVGRNHYDDADLAHIRSVIQLEARPLNVSRIARTLANEYPKHTYWSYLSFLQKNLRDRPDLF,-1.83
4,HMIIIPKKDYDVSQLDNLVSWLKDRGLEVHISRGENLTVIGLIGDTSKIDIDLIRSLDVVEEVKRIQ,-0.326
5,HMKLTEGETIFLNESDTADWKKIPGIGSVYASRIVKYRNLLGGFVSVNQLREVYGIDDELFAKIYPYI,-0.0044
6,HMNEAMIMIDLKGKSRDEAVKELDELNLKYRFTGNGIVKDQKPKAGEEINSDTVVEVELSEIK,0.114
7,HMKSVTAPLPGTVTQILVKVGDAVKAGDTVLMLEAMKMENSITAEAAGTVKAIRVEKGAQVQGGDVLIEM,0.156
8,HMIVIMAKESSPAELEGVKNRIESHPGLRPQVFDGVERIVVGVLGSIPPDLKDEIELLPGVIEVVPISK,-0.0582
9,HMSSEYARFFSGNYYEVLGVAKNASYDEIKAAWKKLVKEYHPDLHPQRQEEFTKIIQKINEAYEYFKKMH,-0.0398
10,HMVQAQGARIREARVQRGLSQAQLGEPRYSGSYISHIENGRRSPGTDVLAFIAARLGLEPGALDS,-0.504
11,HMHSDSEIEKGYTDDGQKLSNVNGVYMTKSEMYNKGIVEKDPNTGEEVMGRNRVNPVTGELE,0.164
12,HMIMNEYEELRDRYLIGQIWKIGDLIEAKGIEGKIIQRGTNYVTFNDNNGKVHKAWLHEIKYEQ,-0.343
13,HMSLNSELIARIENLIASIEDKRSWGYGFAESVLGQVQAGATLSPRQLEIIAKLEKENSYSVQLERQ,-0.765
14,HMKAQLQHIIGSNIKLARNTQGYTQEGLAERAEISVEHLKQVERGKKMLSVESLVNVANALQVSVDSLV,0.0587
15,HMSRMGDSIKSLRSRNNMSQDALAEKLNVTRQAISNWENSKTQPDADTLKNLGIIFNVTVDEIINNDF,0.0528
16,HMTVSRRYTENEMETALKAYLATHNFISRRDMQQEFALTIYSARKWLNHFVDVGLIERIGLKNAPIYKL,-0.4
17,HMTEPKRIVDHWQPSDDVYDILRMSHIDLDFARSLLPEFIVYWKDSSQTHTSWNSKFLQHAKYHWAKRHQL,-2.08
18,HMTSSQRDSILEFLKTRKDHPTADVVYMNVRKSFPNISLGTVYRNLTLLSDIGQIAKIRVGDGVDHFDADT,-0.526
19,HMQKNFYQILGVDSKASPATINAAYERAKSRVIQSGLEDPDTMALLRDAWETLADPGDRAAYDESLAT,0.0751

row,Sequence,soluble fraction (log2)
1,HMGQQTVEPLSRRELEVLSLLAKGLSNQQIADRLVISVRTVKKHVENIHGKLGVQSRTQAVARARELGLV,0.122
2,HMNSKYILLQVSDIPKTSLVLERQFGVTEYSVQDEHTLRIYDTSLDMAAVNKALVVQDIAVISSQL,-0.353
3,HMGNWENVEKETTEAIMAVKNGEAVWVDLAPANRMIRQMQHELVEQYGLLSQSYGKEPKRRIRIFQNP,-0.337
4,HMRRNLSGEDTIVNRMAQWQYTQEQKNELHKMMDAGMPQEDILSVFYPEIKAEEMHRFLLAFQTAHNSG,-0.162
5,HMYTVQPHESLWSIAASQLGDGHRFTEIVDLNQELLGGKANFIKPGWVLQIP,-0.299
6,HMQLGQMIVKLRKEQGLTQETFAKKFNVTRQTVSNWENEKSYPDLHTLVKISDEFHLSLDILLK,-2.8
7,HMWSGEPFLDELRHADTLLETDPEAALAEYRALADKGSAAAMMALGNAYASGSHVARDEGEAEHWYRRAA,0.0547
8,HMTNVDELIGKEAVVVKEIRPYTTGEVKLDGKVWRAMSESKQVYKVDEIVTVLRIEGVTMII,-0.419
9,HMKKYISEEQAKQAALETAGGGSVVKIKFTTDDGIKVYEIDIINGNYEYEITVHAETGKILDVDKERIH,-1.04
10,HMNLNLDITTYKLEELENLLKLKPNYKQEQIFEAKTKMEKFILKSNLNESKREELYIFLDNIYNKLTNNLL,-2.17
11,HMRSLAVGNVVSEEGKPSYLLLDSKRTMLFSENSIPSLYLEDGRRVIVNYTLLDEDYQGYDFRIHVNDIDT,-0.113
12,HMGETPEILRDWEAAQNAVNDMLSKYAPGGYMGKIIYPLLTPLKERLEAGERTPDLYNAIVEAT,0.0804
13,HMYTVKELSRLTGLTPRTLRYYDAIGLLSPARNRDNDYRLYGGAEVDRLQEILLYREMGLPLEEIGRILD,-1.45
14,HMKNHSTFKSVLSNIEFPINERISGHAIQNPILGLIKADHPNFSSDQYIAISELNFYREKYISNYLLTEI,-3.35
15,HMSGTYIATVEAGSLDIYKSMTSNETIGKASRGDVFQILEDMGSGYARVSYNDVEGYMSIKTGDASIEEL,-0.203
16,HMLRPEEMIYHEMLDAILDRRLEPGMKLVEEDLAKTFGVSRARIRATFLQLAHDKLINLVPNRGAFVAEP,-1.77
17,HMIDAHTALLAKRLEAKGMLPLTDKSSAEEIYAEFGISKKAFKKALGALYKERLVRIGEDGVVWI,-1.27
18,HMKVSVDLSMFEDDQTADRNAAVAWVVDELGAGGVDRTILMQLQSTGWSAEQSRAILDLASAGR,-0.208
19,HMENRREYQKAIDYLSDQIRAGTLTVGSRLPTERAIAEALGISRNSTREALRTMENMGMIESKQGSGHYLT,-0.00154
